Laboratory results as given in patent US9943596B2, “Combination therapy using dual inhibitor of c-MET and EGFR and IGF-1R inhibitor” (Samsung Electronics Co., Ltd., priority 2014, dated 2018).

B1: scFv of huAbF46: scFv of structure VH-linker-VL from the heavy and light chain variable regions of huAbF46 (protein)
scFv: EVQLVESGGGLVQPGGSLRLSCAASGFTFTDYYMSWVRQAPGKGLEWLGFIRNKANGYTTEYSASVKGRFTISRDNSKNTLYLQMNSLRAEDTAVYYCARDNWFAYWGQGTLVTVSSGLGGLGGGGSGGGGSGGSSGVGSDIQMTQSPSSLSASVGDRVTITCKSSQSLLASGNQNNYLAWHQQKPGKAPKMLIIWASTRVSGVPSRFSGSGSGTDFTLTISSLQPEDFATYYCQQSYSAPLTFGQGTKVEIKR
B2: ME22S: anti-c-Met/anti-EGFR bispecific antibody in which the modified anti-EGFR scFv is fused at the c-terminal of L3-1Y-IgG2 (antibody)
heavy: EVQLVESGGGLVQPGGSLRLSCAASGFTFTDYYMSWVRQAPGKGLEWLGFIRNKANGYTTEYSASVKGRFTISRDNSKNTLYLQMNSLRAEDTAVYYCARDNWFAYWGQGTLVTVSSASTKGPSVFPLAPCSRSTSESTAALGCLVKDYFPEPVTVSWNSGALTSGVHTFPAVLQSSGLYSLSSVVTVPSSNFGTQTYTCNVDHKPSNTKVDKTVERKCCVECPPCPAPPVAGPSVFLFPPKPKDTLMISRTPEVTCVVVDVSHEDPEVQFNWYVDGVEVHNAKTKPREEQFNSTFRVVSVLTVVHQDWLNGKEYKCKVSNKGLPAPIEKTISKTKGQPREPQVYTLPPSREEMTKNQVSLTCLVKGFYPSDIAVEWESNGQPENNYKTTPPMLDSDGSFFLYSKLTVDKSRWQQGNVFSCSVMHEALHNHYTQKSLSLSPGKGGGGSGGGGSEVQLLESGGGLVQPGGSLRLSCAASGFTFSNYDMSWVRQAPGKCLEWVSGISHSSGSKYYADSVKGRFTISRDNSKNTLYLQMNSLRAEDTAVYYCAKDATPRPLKPFDYWGQGTLVTVSSGGGGSGGGGSGGGGSQSVLTQPPSASGTPGQRVTISCTGSSSNIGNNDVSWYQQLPGTAPKLLIYDDNKRPSGVPDRFSGSKSGTSASLAISGLRSEDEADYYCGSWDASLNAYVFGCGTKLTVLG
light: DIQMTQSPSSLSASVGDRVTITCKSSQSLLASGNQNNYLAWYQQKPGKAPKMLIIWASTRVSGVPSRFSGSGSGTDFTLTISSLQPEDFATYYCQQSYSRPYTFGQGTKVEIKRTVAAPSVFIFPPSDEQLKSGTASVVCLLNNFYPREAKVQWKVDNALQSGNSQESVTEQDSKDSTYSLSSTLTLSKADYEKHKVYACEVTHQGLSSPVTKSFNRGEC

What was measured:
c-Met = c-Met (Homo sapiens, UniProt P08581); experiment: specificity of expressed scFv of huAbF46; type: binding; conditions: after expression
Sequence of c-Met (P08581 25-1390): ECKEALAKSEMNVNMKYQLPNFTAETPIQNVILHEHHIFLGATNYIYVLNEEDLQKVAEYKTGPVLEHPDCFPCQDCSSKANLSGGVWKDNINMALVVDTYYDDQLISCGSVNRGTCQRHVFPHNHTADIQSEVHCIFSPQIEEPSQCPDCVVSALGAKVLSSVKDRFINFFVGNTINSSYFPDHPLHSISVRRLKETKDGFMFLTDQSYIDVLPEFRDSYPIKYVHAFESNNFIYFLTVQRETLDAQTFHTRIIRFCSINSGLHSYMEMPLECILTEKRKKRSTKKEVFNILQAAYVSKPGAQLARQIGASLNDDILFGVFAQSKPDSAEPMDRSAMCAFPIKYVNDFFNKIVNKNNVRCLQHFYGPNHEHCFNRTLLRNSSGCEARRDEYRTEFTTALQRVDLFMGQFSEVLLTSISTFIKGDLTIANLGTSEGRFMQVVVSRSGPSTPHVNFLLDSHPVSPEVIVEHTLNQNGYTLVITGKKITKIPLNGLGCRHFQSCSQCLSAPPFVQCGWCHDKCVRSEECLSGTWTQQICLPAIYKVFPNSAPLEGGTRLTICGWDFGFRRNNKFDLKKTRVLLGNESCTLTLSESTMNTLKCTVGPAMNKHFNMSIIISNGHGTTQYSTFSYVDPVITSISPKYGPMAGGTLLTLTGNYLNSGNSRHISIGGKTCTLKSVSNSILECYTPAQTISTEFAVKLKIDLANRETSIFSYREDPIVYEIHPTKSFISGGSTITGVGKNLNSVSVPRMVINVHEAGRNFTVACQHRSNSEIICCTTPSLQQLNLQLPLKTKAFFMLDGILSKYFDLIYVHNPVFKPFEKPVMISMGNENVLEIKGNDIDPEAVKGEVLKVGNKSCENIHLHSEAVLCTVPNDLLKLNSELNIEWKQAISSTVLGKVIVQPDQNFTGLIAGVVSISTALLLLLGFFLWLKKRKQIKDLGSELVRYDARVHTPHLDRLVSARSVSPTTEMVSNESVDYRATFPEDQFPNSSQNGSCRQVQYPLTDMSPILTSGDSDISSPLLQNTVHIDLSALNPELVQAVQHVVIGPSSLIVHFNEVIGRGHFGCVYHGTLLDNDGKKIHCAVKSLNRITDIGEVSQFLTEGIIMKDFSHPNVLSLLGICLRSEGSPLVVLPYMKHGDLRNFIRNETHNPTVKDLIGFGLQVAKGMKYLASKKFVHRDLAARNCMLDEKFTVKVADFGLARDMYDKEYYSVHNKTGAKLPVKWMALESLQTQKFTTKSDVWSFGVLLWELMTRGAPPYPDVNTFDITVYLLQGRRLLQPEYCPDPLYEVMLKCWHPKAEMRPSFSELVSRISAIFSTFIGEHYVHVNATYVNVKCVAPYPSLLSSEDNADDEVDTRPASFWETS
Source text: For use in constructing an scFv of the huAbF46 antibody from the heavy and light chain variable regions of the huAbF46 antibody, a gene was designed to have the structure of “VH-linker-VL” for each of the heavy and the light chain variable region, with the linker including the amino acid sequence “[…]” (SEQ ID NO: 54). A polynucleotide sequence (SEQ ID NO: 55) encoding the designed scFv of huAbF46 was synthesized in Bioneer and an expression vector for the polynucleotide had the nucleotide sequence of SEQ ID NO: 56.

[1] = system: gastric cancer cell line SNU668; experiment: cell proliferation assay (CellTiter Glo), SNU668; type: cell-based; conditions: ME22S 1/5 dilutions from 60 nM, alone or with linsitinib 10 μM, 72 hours, FIG. 2
Description: (§1) 72 hours after the treatment with the antibody and/or the inhibitor drug, the number of living cells was counted using a CellTiter Glo assay (Promega, G7573). This assay measures the amount of ATP which reflects metabolism of living cells, thereby counting the number of living cells.
(§2) 72 hours after the co-treatment, the cell number was measured by CellTiter Glo assay (Promega, G7573).

[2] = system: gastric cancer cell line MKN45; experiment: cell proliferation assay (CellTiter Glo), MKN45; type: cell-based; conditions: ME22S 1/5 dilutions from 10 nM and/or linsitinib 10 μM, 72 hours, FIGS. 4A, 4B
Description: as §1
(§3) 72 hours after the co-treatment, the number of living cells was counted by CellTiter Glo assay (Promega, G7573).

[3] = system: gastric cancer cell line SNU5; experiment: cell proliferation assay (CellTiter Glo), SNU5; type: cell-based; conditions: ME22S 1/5 dilutions from 60 nM, alone or with linsitinib 10 μM, 72 hours, FIG. 2
Description: as §1, §2

[4] = system: lung cancer cell line HCC827; experiment: cell proliferation assay (CellTiter Glo), HCC827; type: cell-based; conditions: ME22S 1/5 dilutions from 150 nM and/or linsitinib 10 μM, 72 hours, FIGS. 3A, 3B
Description: as §1, §3

[5] = system: L3-1Y/IgG2 resistant MKN45re#1 and MKN45re#24 cell lines; experiment: cell proliferation assay (CellTiter Glo), anti-c-Met antibody resistant MKN45; type: cell-based
Description: To obtain anti-c-Met antibody resistant MKN45 gastric cancer cells, MKN45 gastric cancer cells were administered with L3-1Y/IgG2 for at least 3 months by increasing the administration concentration. The amount of L3-1Y/IgG2 administered was increased from 1 μg/ml to 10 μg/ml, until resistance to L3-1Y/IgG2 is induced. The obtained L3-1Y/IgG2 resistant clones were named as MKN45re#1 and MKN45re#24, respectively.
72 hours after the co-treatment, the number of living cells was counted by CellTiter Glo assay (Promega, G7573). […] For comparison, the same experiment was preformed except that cells were treated with ME22S alone at the 1/5 diluted concentration starting from 10 nM.

Molecule	specificity to c-Met (c-Met)	cell proliferation inhibition effect [1]	cancer cell proliferation inhibition [2]	cell proliferation inhibition effect [3]	cancer cell proliferation inhibition effect [4]	cancer cell proliferation inhibition effect ([5]; MKN45re#1 (linsitinib 10 μM) or MKN45re#24 (linsitinib 2.5 μM), ME22S 1/5 dilutions from 10 nM, 72 hours, FIG. 5)	resistance of the cell line to the antibody ([5]; anti-c-Met antibody (L3-1Y/IgG2) resistant MKN45 gastric cancer cell line)
B1	exhibit specificity to c-Met	–	–	–	–	–	–
B2	–	does not exhibit a cell proliferation inhibition effect	can inhibit proliferation	has a cell proliferation inhibition effect	not observed	no cancer cell proliferation inhibition effect	resistant
